Results published in article doi:10.1101/816322 (bioRxiv, 2019).

T1: Flag-tagged Trichoplax adhaerens Bcl-2-like protein 1 (trBcl-2L1) (Trichoplax adhaerens, UniProt A0A1B1IJP0 1-215)
T1 sequence (looked up): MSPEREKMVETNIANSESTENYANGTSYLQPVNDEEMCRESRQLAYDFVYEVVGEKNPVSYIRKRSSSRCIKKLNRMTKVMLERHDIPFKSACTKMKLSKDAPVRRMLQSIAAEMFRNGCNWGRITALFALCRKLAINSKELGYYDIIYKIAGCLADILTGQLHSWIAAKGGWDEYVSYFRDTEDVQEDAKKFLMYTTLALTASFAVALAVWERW

T2: Flag-tagged Trichoplax adhaerens Bcl-2-like protein 2 (trBcl-2L2) (Trichoplax adhaerens, UniProt A0A1B1IJN9 1-211)
T2 sequence (looked up): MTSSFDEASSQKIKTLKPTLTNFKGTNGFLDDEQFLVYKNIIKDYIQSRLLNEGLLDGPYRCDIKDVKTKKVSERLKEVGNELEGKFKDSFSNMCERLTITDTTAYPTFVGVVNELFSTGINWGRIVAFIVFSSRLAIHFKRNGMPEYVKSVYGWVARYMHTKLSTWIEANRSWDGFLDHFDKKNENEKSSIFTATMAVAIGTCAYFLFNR


Tests used:
[1] = target: T1, Flag-tagged Trichoplax adhaerens …; assay: FRET or BRET
[2] = target: T2, Flag-tagged Trichoplax adhaerens …; assay: FRET or BRET

FRET efficacy [1]	FRET efficacy [2]	Binder
5.84%	1.97%	EGFP-tagged Trichoplax adhaerens Bax (trBax, trBcl-2L3) (natural protein, UniProt A0A1B1IJP1 1-241, looked up) MADFTYVLITRSISTIFSSSCLIAMAHVKSVTSTPTTTTTTTTQSCPRREENLKEIAAESKKLFLDFIADRSAKDGQDQGCISQLTREHNELQIEPTSPTIQVARTIRQIGDELDSDPHLNGLLHKLHVTSSTAYSTFRRVAMRIFQDGQFNWGRIITLFFFGYRLTIRVLSESPIVEMIISWIARFIYEICSFWIAESGGWDAITQYIQQADWKNKYTLGLIAVGVLVTAFVTWQRYNSS
11.2%	5.45%	EGFP-tagged Trichoplax adhaerens Bak (trBak, trBcl-2L4) (natural protein, UniProt A0A1B1IJN7 1-251, looked up) MSSTITIAESLENGENNDEQEEANTSRSQFRVTRAQVIRRQLSANPAHLPVSEQEVINETSSIFRSFVVESYQAERDGGIIAEEVRSFADQVQSSSNQTITPSSPTSEIGRHLAQLGDSYSVRFQNEFRLMITHLDINPGTAYRTFAGVARRLFRDGISWRRIVTLMAFGYQIAIDVMRSGVQGFLSRICNFIVRFISGEHIANWIARQGGWRAARYEGLASPGWPAIIGVATAAAASVFGVLWLSGYFRE
